Results on 21 sequences are retold here after a protein production outcome set (Wang et al. 2014).

The data set in a line: label from the status in PepcDB records.
For “MSLRWQWRIYEEPLQEPLTTAQGVWRSRSGIYLRLEDEQGQVGYGEIAPLPGWGSETLNADIALCQQLPGHLTPEIMATIPEALPAAQFGFATAWQSVGRLPYRVRPWPICALLGSGQAALEQWQQSWQRGQTTFKWKVGVMSPEEEQAILKALLAALPPGAKLRLDANGSWDRATANRWFAWLDRHGNGKIEYVEQPLPPDQWQALLSLAQTVTTAIALDESVVSAAEVQRWVDRGWPGFFVIKTALFGDPDSLSLLLRRGLEPQRLVFSSALEGAIARTAIFHLLETWQPCHALGFGVDRWRSAPLLTTLTAYERLWERLDQGHHHHHH”, the protein production result is “not failed”.

Consider “MSHKISEYFANDPPSFFDELASKPKGNNLSTEGSSSSASSTSSAPNMMSNTFVGFFQPPEYVETPEAGEDSIKVGDDVRNLWELPRENEPGKLIMPGIHLQTDLADPISVAVTQHLGEAELSYRKILRVDDVTQDERGLRTLIHAGCYRTAVNLTGRLLTIYGQGYGRSGQPAKHSPHSLQLWFTRLALLAKLGEFELLNAEAEPFGQLTSPDVFYDFYPEMYNGKSGSIACFSFRLLLAELPIYLGKPHVALDRLSELHVTTREIKEHYLSLHNKAAEEFWQRRCERVLHSIINCGLMMKKFSMIDDIMEGTLLKRSNLSKEDRRSLYSAWGRIYLQIGDIFGAEQKIAVSRRLREINSAPDLRDLVDKGLIAVAKNDFPEAYVIFQKALHLDTGNTMILNNMGVCLLYAGKLKDAINLYERAINLNPQKSLNESLLVNLSTLYELESNNSKAKKYNLLRLINRYKPDLNISIEICLKLQTIN”, for which the protein production result was “failed”.

“MVEPDRVFFVRVMREWISRFTGKIIENFEIHLSQPMGFAGDIMSLTEFATSRQVKNLVLDFSDPIQRNLSQAQQIIRDGLLRCRYPQKNELDVLQDCDDPMALHVSMKTRHLVMKTNMHANDFVGISIFLNSCPELESLTFDLVTSSRFVRAPSPLVIDPVSHWLTSKSYECLEKTLKVVKITKFRGSSNELHMLQYLLRTGCVMERVDLYEAEGLNHNQKRWVLAGVEEVQQNFKRASRHLRITLHNA”: the protein production result is listed as “not failed”.

With “MRKAYLMESIQPWIEKFIKQAQQQRSQSTKDYPTSYRNLRVKLSFGYGNFTSIPWFAFLGEGQEASNGIYPVILYYKDFDELVLAYGISDTNEPHAQWQFSSDIPKTIAEYFQATSGVYPKKYGQSYYACSQKVSQGIDYTRFASMLDNIINDYKLIFNSGKSVIPPMSKTESYCLEDALNDLFIPETTIETILKRLTIKKNIILQGPPGVGKTFVARRLAYLLTGEKAPQRVNMVQFHQSYSYEDFIQGYRPNGVGFRRKDGIFYNFCQQAKEQPEKKYIFIIDEINRANLSKVFGEVMMLMEHDKRGENWSVPLTYSENDEERFYVPENVYIIGLMNTADRSLAVVDYALRRRFSFIDIEPGFDTPQFRNFLLNKKAEPSFVESLCQKMNELNQEISKEATILGKGFRIGHSYFCCGLEDGTSPDTQWLNEIVMTDIAPLLEEYFFDDPYKQQKWTNKLLGDS”, the protein production result is reported as “failed”.

On to “MTMLLDGGPQFPGLGVGSFGAPRHHEMPNREPAGMGLNPFGDSTHAAAAAAAAAAFKLSPAAAHDLSSGQSSAFTPQGSGYANALGHHHHHHHHHHHTSQVPSYGGAASAAFNSTREFLFRQRSSGLSEAASGGGQHGLFAGSASSLHAPAGIPEPPSYLLFPGLHEQGAGHPSPTGHVDNNQVHLGLRGELFGRADPYRPVASPRTDPYAAGAQFPNYSPMNMNMGVNVAAHHGPGAFFRYMRQPIKQELSCKWIDEAQLSRPKKSCDRTFSTMHELVTHVTMEHVGGPEQNNHVCYWEECPREGKSFKAKYKLVNHIRVHTGEKPFPCPFPGCGKIFARSENLKIHKRTHTGEKPFKCEFEGCDRRFANSSDRKKHMHVHTSDKPYICKVCDKSYTHPSSLRKHMKVHESQGSDSSPAASSGYESSTPPAIASANSKDTTKTPSAVQTSTSHNPGLPPNFNEWYV”, for which the protein production entry is on record as “not failed”.

Take “MRIDTQEQLVTLLNALFEKVGINLEQVSKLDNYGVMFSVPGTMKPLIATLKTVTTPTNWNNETNLGHYKSADENWLLCLKPAPHSVFCIATVCSLHEKHLEQYIETSEKKQDRRIAAEHGDPEAQYYTAQDCEDKTEALFWYRKAGEQNHYWALYQIALMYEAGEGGLEKDFAQAILWRGKAAEQGSDAAARDLAEMYEEGTADIPQDLTLAIFWYERWLELSPVMRRMIKPKIKSLKAALSQRMNE”: the protein production result is listed as “failed”.

Regarding “MERILLVLDDTGRGEIAFQKLKKLAEDGLRGEVYILYIREMEVPPFVPEEKELAAYHRLMTQSMKKLEGFKNQLEKAGLKVSDVSVVFGKYADRLLLVEKQIKPDLIVVGFKGGLLKRVIGGFFGKDPCEVLLKKSKASLLICR”, the protein production entry is “not failed”.

Regarding “MEIFLWKDNRFHHQLRLLWHMCRGRNGTACLLLMKHFAAVRYLKLCTNHLWEVAGNMMNSNMNRRNVQYRQDRQPMPQPAVQPQCQPSCQTCPGTCNDGSMMTGNNGNPQMMPAGGPGPERRPMPVPDHQTLMNEIYQLGFAIVETVLYLDTHPSDADALNYYNQIKRRYSHVMEMYSREYGPLLNTNVMNDNYWSWVATPMPWEVEGC”, the protein production result is listed as “failed”.

As for “MATITVVKARQIFDSRGNPTVEVDIHTSNGIKVTAAVPSGASTGIYEALELRDGGSDYLGKGVSKAVGNVNNIIGPALIGKDPTQQTAIDNFMVHELDGTQNEWGWCKQKLGANAILAVSLAVCKAGAVVSGIPLYKHIANLAGNPKIVLPVPAFNVINGGSHAGNKLAMQEFMILPVGAASFKEAMKMGVEVYHHLKSVIKKKYGQDATNVGDEGGFAPNIQENKEGLELLKTAIEKAGYTGKVVIGMDVAASEFYSEDKTYDLNFKEENNNGSQKISGDALKDLYKSFVAEYPIVSIEDPFDQDDWEHYAKMTTECGTEVQIVGDDLLVTNPKRVAKAIAEKSCNALLLKVNQIGSVTESIEAVKMSKKAGWGVMTSHRSGETEDTFIADLAVGLSTGQIKTGAPCRSERLAKYNQLLRIEEELGSEAIYAGVNFRKPVEPY”, the protein production entry is “failed”.

“MNSASTTVPTDLTNERLPSGRLLALGLQHVLVMYAGTVAVPLIVGGALKLPKDQLAFLINADLFAAGLATLIQAFGFWKFGIRMPVMMGVTFASVAPMIAIGNDPNVGLLGIYGAVIASGIFGILIAPMMGRMLGLFPPVVTGTVITLIGVSLMRVGINWAGGGQPTTRAVIDGVAKEVPNLAYGDLSNLAIAGLVLAVILLLSKYGRGLVANCAVLLGIIIGTLVAMALGKVSFEGLNEASYVAVITPLHFGIPKFELTAILSMCIVMLITLVESTGMFLALSDITGRKLSRDDLTAGLRADGLGTVIGGIFNTFPYTSFSQNVGLVTVTGVRSRYVAAAGGLILIAFGLFPKMAHVVASVPQFVLGGAGIVMFGMVAATGIRILGSCDFNRNRHNLFIVAISIGFGMIPTLSPTLFQYLPKWTDPFTHSGIVLGTIVAVALNLFFNGIQSAEEAMRNAAANSHGTE”: the protein production entry is reported as “failed”.

As for “KTPIQVLHEYGMKTKNIPVYECERSDVQIHVPTFTFRVTVGDITCTGEGTSKKLAKHRAAEAAINILKANA”, the protein production entry is recorded as “not failed”.

“MKYNKDGQTFLLVLDKGEDIVEVLTQFAMEQEMKFGSVSGIGACDNVTLIFYNLDTQKYESREVNEALELTSLLGNISHIDDKPFAHLHGTFGTRDFQTLSGHLTKAVVSATAEIVIQMTNLDVNRTHDEETGLNLLRP”: the protein production entry was “failed”.

“NFVPGMEFSMADASSIAIIGGADGPTAIFLASQLSPDLLGAIAVAAYSYMALVPIIQPPIMKALTTPEERKIKMAQLRHVGKTEKIVFPLV”: the protein production entry is recorded as “failed”.

Consider “MVNPTIPDDLLAKIAKTVAHKCWWDLQPLLRSGRRGRDVVYRPDVLKGANIFSMCEDPDDYQVDGSHHPSGPQEEGRHRAFFKRCVDAGNPTTMYFEALCVLTHERDIKGAINLLRPHVPSQAHATLACAILYIIDGNDYMGAIFLNLFGRNHYPLGTEETRDLCEEFLEDLKKFRPPYNNTYGSTFSYPNSHGIKTPDCALLCYIVSGPFKNVCNCCYLWWCARRVSQML”, for which the protein production entry is “failed”.

For the sequence “MARHRDRAAGMNMAMMRLRREDPRVVGSFRLHRRLGAGGMGVVYLGSDKKGQRVALKVIRPDLAEDQEFRSRFAREVSAARRIRGGCTARLVAADLEADRPWFATQYVPGPSLHDKVADGGPLGAADVAAVGAALSEGLVAVHEAGVVHRDLKPSNILLSPKGPRIIDFGIAWATGASTLTHVGTAVGSPGFLAPEQVRGAAVTPATDVFSLGATLAYASMGDSPFGHGSSEVMLYRVVHEEAQLHGVPDALAPLVRACLAKDPEERPSTLQLSLRLKEIAAREAQGMADVRPPAPRSGEADVPTGRLADTYPERAQRRPQGRPGPQGTPAPRGTSASRGSAPRGSVPSRGGAPSRGGTPSRGGTPSRGGTSSRGGGTGARSGSRPTPTRDTTGRNSSRNDGGRPAPRGGSGRTAPRTTGTGWRRPANPRLLRQRLFVFVVVTLLVALGIAAAQGCQGPARGLGDERGGGVRATQRDQVDPPGGLPEPRTPGR”, the protein production entry was “failed”.

In the case of “MIVAAPEQYSRDRDWQQAIAAGELTLALQPQMGLRNRQLRGFEVQLRWQHPQQGTLLASQLMEHLEQSQHRETVGRWFLDQAGQLLSQWRNSAQFSGLFALSLLPQQWKSPSFIHDLRSLLETYQIPPEQLELDLPAQSLAESAAESWDWVYAVRDLGIGIGLADFGSRSIGLYDLRNLPLTTLKLERRFVRGLPDDANDRAIVRGVVAMSQALKVRIVARGVDTVDQAKFLARAECDAMQGLAYSAPLEHHHHHH”, the protein production result was “failed”.

On to “MQFIEKIGIVLATYNPNLEYFEKQIQSIKQQSWKNWVCHIVDDCSHSEYQVGIKNIIDNDPRFICHFHSHNLNHYYNFERGLKYCAQDKSITAISLADQDDIWHDDKLKILLKKLRSQKAVLIHSDLELINSYDQTIHPSAWDFEGRKPHKLSHDLLLLRNVVTGCSVLFCTSLLTDVLPFPPQNKISWYHDWWIALVASHRGKIVHIHKPLVWYRIHNANNVGVLKDSGKIHCELLLLCRKKFKINGNSYLVHRDFSKAFYRRFKRELNELGYTNPFDDRKLDFGWHILKLLYKSLLVGYNSEGAALRIGVLKLIFDIQRSYRIILYHCLKTFKSYYKNSQ”, for which the protein production result is “failed”.

Take “MFFSEARARSRTWEASPSEHRKWVEVFKACDEDHKGYLSREDFKTAVVMLFGYKPSKIEVDSVMSSINPNTSGILLEGFLNIVRKKKEAQRYRNEVRHIFTAFDTYYRGFLTLEDFKKAFRQVAPKLPERTVLEVFREVDRDSDGHVSFRDFEYALNYGQKEA”: the protein production entry was “failed”.

As to “MSTELIAAVEAADSAEGLVRAVAALSAARTDAAIPTLISVLAFNNPGAAVVAVDGLIQLGSPAAQAILNNLDDYNYGARAWALRALAGIGEPAALPLLLSAAREDFSLSVRRAATYGLGRVRWADLSESDRLAQQQQCYETLKLCLQYDPEWVVRYAAAAALETLAPAATQLQSAIAETLNRQAHSDEERAVQARSRLAERRLAGGVLEHHHHHH”, the protein production result is listed as “not failed”.

“MWRVRCKAKGGTHLLQGLSSRTRLRELQGQIAAITGIAPGSQRILVGYPPECLDLSDRDITLGDLPIQSGDMLIVEEDQTRPKASP”: the protein production result was “not failed”.

Regarding “MWPASRCASDSSLQCGRPNDRIPMSDIAVLINTAVAVLAAVLLIVRFRVNPVISLILASVYLGLAVGLGVEKTVKTITGGFGEIMVDVGLLIAFGVLMGSILNQSGAIRRLVEHLLKTFGPKRLPYTMGLAIGTVLQSIFLDVLLVISAPLARKLAPKIGKLGTARMATAMAIALECGIVFTVPGVASLALAGLLNVPLGKMLLFGLLLVIPTIIISIAIMTFLFRRGFWNEAKDEDHTFVAEEDSEGEEPTDGGAATVPPTANSERGTAASSAQPAGGSVAVVERERKEAPLILLFAPLLTSLLLIGAGAILEILEISMPWLQLLGEPVIALLIGLIGTCLVTRAAIGQKKVEEAIAVGFKESGQILILTGVGGSLAATVAAAGLGDILGGFFSASTVAPLLVVWAIAAVLHIAVGSVTLSAITAAGLLAPIAPAIGLDPVLLALAAGAGSLFMVHVTSNTFWLLQSLLGQSVRGALKSVTVGVSVASVVAILLILPMSLLF”, the protein production entry was “failed”.
